The values that follow come from patent publication US20240101708A1 (Genentech, published 2024).

For orientation: Kd means the concentration at which binding is half-saturated.

One assay concerns the target RNF43. As to the kind of experiment: flow cytometry of live HT29 cells with stably integrated, doxycycline-induced gD-tagged ligase, stained with anti-gD antibody and APC; Parental HT29 APC-A+ 0.27. In general terms: Flow cytometry measures light scatter and fluorescence of single cells or particles in a stream.
A further assay has as its target RNF128 (GRAIL). The description is as above.
A further assay deals with RNF13. The assay is described as above.
Sequence of RNF13 (transmembrane E3 ubiquitin ligase with N-terminal gD tag, as listed by the source limits assumed): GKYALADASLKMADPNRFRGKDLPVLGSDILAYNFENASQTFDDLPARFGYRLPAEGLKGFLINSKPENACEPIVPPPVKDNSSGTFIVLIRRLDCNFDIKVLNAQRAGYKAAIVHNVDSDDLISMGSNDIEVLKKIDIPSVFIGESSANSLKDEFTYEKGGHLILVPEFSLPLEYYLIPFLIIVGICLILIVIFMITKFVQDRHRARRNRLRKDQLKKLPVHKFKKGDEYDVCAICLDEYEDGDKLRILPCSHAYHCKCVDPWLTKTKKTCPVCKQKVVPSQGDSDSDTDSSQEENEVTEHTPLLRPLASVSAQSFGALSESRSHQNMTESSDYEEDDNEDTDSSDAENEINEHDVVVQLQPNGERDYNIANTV
The target in assay [1] is T1, recombinant human ZNRF3 extracellular domain (human, UniProt Q9ULT6 56-219).
T1 construct: extracellular domain; also called huZNRF3; human ZNRF3 ECD
T1 sequence (looked up): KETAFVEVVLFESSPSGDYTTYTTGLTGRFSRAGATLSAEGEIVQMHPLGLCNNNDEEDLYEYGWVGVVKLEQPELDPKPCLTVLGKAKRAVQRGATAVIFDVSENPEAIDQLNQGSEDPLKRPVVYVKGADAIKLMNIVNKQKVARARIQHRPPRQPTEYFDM
As to the kind of experiment: SPR Biacore 8K; antibody captured on Protein A; ZNRF3 ECD analyte; 25 C. On the procedure: Antibodies were screened for binding to recombinant human RNF43 and ZNRF3 ECDs using a Biacore® 8 k instrument (GE Life Sciences). Briefly, antibodies diluted to 1 μg/ml in 1×HBSP buffer (Cytiva, BR100368) were captured on a Sensor Chip Protein A (GE Life Sciences) using a flow rate of 10 μl/minute and a contact time of 60 seconds. Binding of recombinant human RNF43 and ZNRF3 extracellular domain to the captured antibodies was analyzed at 25° C. using a single cycle kinetics method with a flow rate of 30 μl/minute, a contact time of 180 seconds and a dissociation time of 600 seconds. The concentration of recombinant human RNF43 and ZNRF3 extracellular domain in the single cycle kinetics were 0, 0.8, 4, 20, and 100 nM. Between cycles, the chip was regenerated using 10 mM Glycine HCl pH 1.5 injected for 30 seconds at 30 μl/minute. Data were evaluated using Biacore 8K Evaluation software (GE Life Sciences). Kinetic constants were obtained using a 1:1 binding model with the parameter RI set to zero. Cell surface ligase antibodies with sub-nanomolar affinities may provide advantages in certain instances, for example, in the degradation efficiency which is correlated with the durability of the ternary complex as shown in FIG. 5D.

The target of assay [2] is T2, recombinant human RNF43 extracellular domain (human) (UniProt Q68DV7).
T2 sequence (looked up): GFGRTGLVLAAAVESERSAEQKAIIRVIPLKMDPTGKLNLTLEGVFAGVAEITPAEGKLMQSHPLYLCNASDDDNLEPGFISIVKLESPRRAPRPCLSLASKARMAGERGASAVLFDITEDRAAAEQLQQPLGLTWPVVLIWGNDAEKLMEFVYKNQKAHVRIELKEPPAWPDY
As to the kind of experiment: SPR Biacore 8K; antibody captured on Protein A; RNF43 ECD analyte; 25 C. (SPR reads the build-up and loss of mass on a sensor chip optically.)

Sequence of RNF128 (GRAIL) (transmembrane E3 ubiquitin ligase with N-terminal gD tag, as listed by the source limits assumed): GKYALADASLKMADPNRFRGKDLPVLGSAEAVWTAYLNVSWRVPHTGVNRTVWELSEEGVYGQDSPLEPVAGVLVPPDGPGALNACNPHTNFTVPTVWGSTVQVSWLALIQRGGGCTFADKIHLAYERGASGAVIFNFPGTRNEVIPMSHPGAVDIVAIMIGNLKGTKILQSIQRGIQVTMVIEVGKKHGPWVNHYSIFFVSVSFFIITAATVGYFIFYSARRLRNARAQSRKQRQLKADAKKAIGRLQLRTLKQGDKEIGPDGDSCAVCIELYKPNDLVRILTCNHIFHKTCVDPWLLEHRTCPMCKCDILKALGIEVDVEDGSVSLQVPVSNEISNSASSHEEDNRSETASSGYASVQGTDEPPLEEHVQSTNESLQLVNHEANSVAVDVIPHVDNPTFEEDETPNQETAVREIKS
Sequence of RNF43 (transmembrane E3 ubiquitin ligase with N-terminal gD tag, as listed by the source limits assumed): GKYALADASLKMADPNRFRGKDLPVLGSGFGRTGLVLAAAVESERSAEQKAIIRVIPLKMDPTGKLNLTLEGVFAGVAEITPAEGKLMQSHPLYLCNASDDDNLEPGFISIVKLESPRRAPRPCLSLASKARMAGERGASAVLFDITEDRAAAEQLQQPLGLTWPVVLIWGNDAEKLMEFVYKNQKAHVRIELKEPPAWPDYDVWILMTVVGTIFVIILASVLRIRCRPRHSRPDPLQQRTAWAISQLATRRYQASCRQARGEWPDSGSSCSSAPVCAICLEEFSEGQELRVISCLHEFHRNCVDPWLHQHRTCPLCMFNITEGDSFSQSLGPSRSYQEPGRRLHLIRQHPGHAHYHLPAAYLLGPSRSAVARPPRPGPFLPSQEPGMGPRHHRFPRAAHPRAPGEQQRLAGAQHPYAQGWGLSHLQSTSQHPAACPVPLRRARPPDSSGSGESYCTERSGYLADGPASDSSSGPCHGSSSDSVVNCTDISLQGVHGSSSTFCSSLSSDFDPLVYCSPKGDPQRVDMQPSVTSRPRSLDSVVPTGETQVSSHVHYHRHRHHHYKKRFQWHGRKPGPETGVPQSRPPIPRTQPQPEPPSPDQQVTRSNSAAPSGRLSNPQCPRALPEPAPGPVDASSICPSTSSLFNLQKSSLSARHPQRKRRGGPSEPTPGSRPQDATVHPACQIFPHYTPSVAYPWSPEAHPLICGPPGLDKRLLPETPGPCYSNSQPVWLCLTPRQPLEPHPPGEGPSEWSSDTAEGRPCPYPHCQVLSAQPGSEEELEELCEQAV

Regarding anti-gD antibody, the APC-A+ (share of cells in the positive gate; percentage by paragraph 258) with RNF43 is 63; with RNF128 (GRAIL) it was 35; with RNF13, 0.79.

B1: ZNRF3-223 (antibody, V domains shown)
VH: EVQLVESGGGLVQPGESLKLSCSASGFTFSNYGMHWIRQVPGKGLDWVAYITNSGGSLYAAAVKGRFTISRDNAKNTLYLELTSLKSEDTAIYHCARGYSYPGPYWGRGTLVTVSS
VL: DIQVTQSPSSLLASLGERVTITCQTGQSINNYLNWYQQRPGQAPLLLIYFATSLQTGVPSRFSGQYSGRSFTLTITSLEPEDIANYFCLQHYSPPYTFGAGTKLELR
notes: Rat clone; VH/VL only
Take B1: the dissociation constant (Kd) in assay [1] worked out at 44.3 pM.

B2: ZNRF3-244 (antibody, V domains shown)
VH: EVQLVESGGGLVQPGKSLKLSCSASGFTFSSYGMHWIRQTPGKGLDWVAYISTNSGTVYADAVKGRFTISRDNAKNTLYLQLNSLQSEDTAIYYCARGYNYPGAYWGQGTLVTVSS
VL: DIQVTQSPSSLLASLGERVTITCQTSQSISNNLNWYQQKPGQAPMLLIYYATSLQTGMPSRFSGQYSGRSFTLTITSLEPEDIANYFCLQHYNPPYTFGAGTKLELK
notes: Rat clone; VH/VL only
As to B2, in assay [1], the Kd stood at 6850 pM.

B3: ZNRF3-329 (antibody, V domains shown)
VH: EVQLVESGGGLVQPGKSLKLSCSASGFTFSSHGMHWIRQAPGKGLDWVAYISNNSGTIYSAAVRGRFTISRDNSKNTLFLQLNSLKSEDTAIYYCARGYNYPGAYWGQGTLVTVSS
VL: DIQVTQSPSSLLASLGERVTITCQTSQSIRNYLNWYQQKPGQVPILLIYYATSLQTDMPSRFSGQYSGRSFTLTITSLEPEDIANYFCLQHYSVPYTFGAGTKLELK
notes: Rat clone; VH/VL only
B3: the Kd in assay [1] was 283 pM.

B4: ZNRF3-231 (antibody, V domains shown)
VH: EVQLVESGGGLVQPGESLKLSCSASGFTFSNYGMHWIRQVPGKGLDWVAYISNSGGSLYADAVKGRFTISRDNAKNTLYLELNSLKSEDTAIYHCARGYSYPGPYWGQGTLVTVSS
VL: DIQVTQSPSSLLASLGERVTITCQTGQSINNYLNWYQQRPGQAPLLLIYFATSLQTGVPSRFSGQYSGRSFTLTITSLEPEDIANYFCLQHYSPPYTFGAGTKLELR
notes: Rat clone; VH/VL only
On to B4, for which, in assay [1], the Kd turned out to be 78.3 pM.

B5: ZNRF3-270 (antibody, V domains shown)
VH: EVQLVESGGGLVQPGESLKLSCSASGFTFSNYGMHWIRQVPGKGLDWVAYITNSGGSLYAAAVKGRFTISRDNAKNTLYLELTSLKPEDTAIYHCARGYSYPGPYWGRGTLVTVSS
VL: DIQVTQSPSSLLASLGERVTITCQTGQSINNYLNWYQQRPGQAPLLLIYFATSLQTGVPSRFSGQYSGRSFTLTITSLEPEDIANYFCLQHYSPPYTFGAGTKLELR
notes: Rat clone; VH/VL only
As to B5, the Kd in assay [1] was 42.4 pM.

B6: ZNRF3-255 (antibody, V domains shown)
VH: EVQLVESGGGLVQPGRSLKLSCAASGFTFSSFTMAWVRQAPKKGLEWVASISSGGGGTYYPDSVKGRFTISRDNAKSTLYLQMDSLRSEDTASYYCATGGFAYWGQGTLVIVSS
VL: DIQMTQSPSSLPASLGDRVTITCRASQDIGSYLRWFQQKPGKSPRLMIYGATSLANGVPSRFSGSRSGSDYSLTINNLESEDMAIYYCLQHNEFPYTFGTGTKLELK
notes: Rat clone; VH/VL only
As for B6, the Kd in assay [1] amounted to 260 pM.

B7: ZNRF3-222 (antibody, V domains shown)
VH: EVQLVESGGGLVQPGRSLKLSCAVSGFTFSNYGMAWVRQTPTKGLEWVATITYDGSTTYYRDSVKGRFTISRDNAKSALSLQMDSLRSEDTATYHCARQGLGYPFVYWGQGTLVTVSS
VL: DVVMTQTPVSLPVSLGGQASISCRTSQSLVHSNGNTYLHWYLQKPGQSPQLLIYRVSNRFSGVPDRFSGSGSGTDFTLKISRIEPEDLGDYYCLQSTHFPYTFGAGTKLELK
notes: Rat clone; VH/VL only
Consider B7, for which the binding result in assay [1] is reported as “no binding”.

B8: RNF43-19 (antibody, V domains shown)
VH: QQQLEESGGGLVKPGGTLTLTCKASGIDFSTYYYMCWVRQAPGKGLEWIACIYTGDGNTYYASWAKGRFTISKTSSTTVTLQMTSLTAADTATYFCARDLAGSSYYSGYYFKLWGPGTLVTVSS
VL: DVVMTQTPASVSEPVGGTVTIKCQASQSIGSNLAWYQQKPGQPPKLLIYSVSNLASGVSSRFKGSRSGTEYTLTISDLECADAATYYSQSGYYGSTYAFGGGTEVVVK
Consider B8, for which the Kd in assay [2] was 34200 pM.

B9: ZNRF3-331 (antibody, V domains shown)
VH: QSVEESGGRLVTPGTPLTLTCTVSGFSLSSYAMGWVRQAPGKGLEWIGIIYAGDTTYYASWAKGRFTISETSTTVDLKITSPTTEDTATYFCARKSDDDSDSYLLWGPGTLVTVSS
VL: AYDMTQTPASVEVAVGGTVTIKCQASQSISSYLNWYQQKRGQPPKLLIYDASTLASGVPSRFSGSGSGTEFTLTISGVQCDDAATYYCQQGWSSTNIDNIFGGGTEVVVK
notes: Rabbit clone; VH/VL only
Turning to B9, the Kd in assay [1] is 200 pM.

B10: ZNRF3-332 (antibody, V domains shown)
VH: QSLEESGGGLVQPEGSLTLTCTASGIDFSTRNYMCWVRQAPGKGLEWVGCIYTSSGGTYYASWVNGRFTISKTSSTTVTLRMTSLTAADTATYFCARGGYVGYGYATYFNLWGPGTLVAVSS
VL: DVVMTQTPASVSEPVGGTVTIKCQASQSISSYLSWYQQKPGQPPKLLIYYVSNLESGVPSRFKGSGSGTEFTLTISDLECADAATYYCQNYYSSSSGWAFGGGTEVVVK
notes: Rabbit clone; VH/VL only
As for B10, the Kd in assay [1] was determined as 1600 pM.

B11: ZNRF3-322 (antibody, V domains shown)
VH: EVHLVESGGGLVQPGRSLTLSCVASGFTFNNWWMTWIRQAPGKGLEWVASISHTGGSTSYPDSVKGRFTISRDNAKSTLYLQMTSLRSDDTATYYCTRWGPILRGFDYWGQGVMVTVSS
VL: DVVLTQTPPTLSATIGQSVSISCRSSQSLLHINGNTYVNWLVQRPGQPPQLLFYLVSRLESGVPNRFSGSGSGTDFTLKISGVEAEDLGVYYCVQSTHAPPTFGGGTKLELK
notes: Rat clone; VH/VL only
For the molecule B11, the binding result in assay [1] is “no binding”.

B12: ZNRF3-237 (antibody, V domains shown)
VH: QIQLVQSGPELKKPGESVKISCKASGYTFTDYAMHWVKQVPGKGLKWMGWINTYTGKPTYADDFKGRFVFSLEASASTVNLQISNLKNEDTANVFCARGGLLSRGWFAYWGQGTLVTVSS
VL: DIVMTQTPVSLSVSLGGQVSISCRSSQSFVHSDGNSYLSWYLQKPGQSPQLLIYEVSNRLSGVPDRFSGSGSGTDFTLKISRVEHDDLGVYYCGQASKIPLTFGSGTKLEIK
notes: Rat clone; VH/VL only
As to B12, in assay [1], the Kd amounted to 5300 pM.
